# Source: patent US20100160556A1 (published 2010)
# Molecular target: GLP-1 receptor (on a GLP-1 receptor transfected CHO cell line)
# Experiment: cell-based or functional assay
"ED50 relative to CM3 (GLP-1 bioassay, cAMP increase) [times]","IC50 (GLP-1 bioassay, cAMP increase) [µM]",Binder
~5,–,HAEGTFTSDVSSYLEGQAAKEFIAWLVKGRGRRDFPEEVAIAEELGC (unbranched 40 kDa mPEG maleimido propionamide on the free thiol group of the C-terminal cysteine) [PEG-CM3-ANA08 (CM3-ANA08 conjugated to unbranched 40 kDa mPEG maleimido propionamide)]
–,187,"HAEGTFTSDVSSYLEGQAAKEFIAWLVKGRGRRDFPEEVAIAEELG [CM3 (GLP-1(7-37)-IP2, murine IP2)]"
–,159,HAEGTFTSDVSSYLEGQAAKEFIAWLVKGRGAADFPEEVAIAEELG [CM3-ANA01]
